Data from patent publication US12043670B2, “Anti-BCMA antibody-drug conjugates and methods of use” (Eisai R&D Management Co., Ltd., priority 2020, dated 2024).

Assay: ThermoFluor thermostability (Tm)
Format: physicochemical
Conditions: Fab fragment; heavy chain clone paired with light chain AB200-(2Vk8)

Molecule | Tm [°C]
AB200-(2Vk8)_R2-CDR1-hs-v4 (antibody) heavy: QVQLVQSGAEVKKPGSSVKVSCKASGGTFSSYAISWVRQAPGQGLEWMGATYRSQSDTFYNQKFKSRVTITADKSTSTAYMELSSLRSEDTAVYYCARGAVYHGYDVIDNWGQGTLVTVSSASTKGPSVFPLAPSSKSTSGGTAALGCLVKDYFPEPVTVSWNSGALTSGVHTFPAVLQSSGLYSLSSVVTVPSSSLGTQTYICNVNHKPSNTKVDKKVEPKSC light: DIQMTQSPSSLSASVGDRVTITCRASQSISSYINWYQQKPGKAPKLLIYATSNLQIGVPSRFSGSGSGTDFTLTISSLQPEDFATYYCQQFRKLPWSFGQGTKLEIKRTVAAPSVFIFPPSDEQLKSGTASVVCLLNNFYPREAKVQWKVDNALQSGNSQESVTEQDSKDSTYSLSSTLTLSKADYEKHKVYACEVTHQGLSSPVTKSFNRGEC | 76.495

Same assay, conditions: Fab fragment; light chain clone paired with heavy chain AB200_R1_VH32

Molecule | Tm [°C]
AB200-R1H32-R2Vk40 (antibody) heavy: QVQLVQSGAEVKKPGSSVKVSCKASGGTFSNYWMHWVRQAPGQGLEWMGATYRSHSDTYYNQKFKSRVTITADKSTSTAYMELSSLRSEDTAVYYCARGAIYHGYDVIDNWGQGTLVTVSSASTKGPSVFPLAPSSKSTSGGTAALGCLVKDYFPEPVTVSWNSGALTSGVHTFPAVLQSSGLYSLSSVVTVPSSSLGTQTYICNVNHKPSNTKVDKKVEPKSC light: DIQMTQSPSSLSASVGDRVTITCRASQSISSYINWYQQKPGKAPKLLIYATSNIQSGVPSRFSGSGSGTDFTLTISSLQPEDFATYYCQQYRRIPWTFGQGTKLEIKRTVAAPSVFIFPPSDEQLKSGTASVVCLLNNFYPREAKVQWKVDNALQSGNSQESVTEQDSKDSTYSLSSTLTLSKADYEKHKVYACEVTHQGLSSPVTKSFNRGEC | 76.379
AB200-R1H32-R2Vk17 (antibody) heavy: QVQLVQSGAEVKKPGSSVKVSCKASGGTFSNYWMHWVRQAPGQGLEWMGATYRSHSDTYYNQKFKSRVTITADKSTSTAYMELSSLRSEDTAVYYCARGAIYHGYDVIDNWGQGTLVTVSSASTKGPSVFPLAPSSKSTSGGTAALGCLVKDYFPEPVTVSWNSGALTSGVHTFPAVLQSSGLYSLSSVVTVPSSSLGTQTYICNVNHKPSNTKVDKKVEPKSC light: DIQMTQSPSSLSASVGDRVTITCRASQSISSYINWYQQKPGKAPKLLIYAASSLQSGVPSRFSGSGSGTDFTLTISSLQPEDFATYYCQQYRKIPWSFGQGTKLEIKRTVAAPSVFIFPPSDEQLKSGTASVVCLLNNFYPREAKVQWKVDNALQSGNSQESVTEQDSKDSTYSLSSTLTLSKADYEKHKVYACEVTHQGLSSPVTKSFNRGEC | 76.415
AB200-R1H32-R2Vk42 (antibody) heavy: QVQLVQSGAEVKKPGSSVKVSCKASGGTFSNYWMHWVRQAPGQGLEWMGATYRSHSDTYYNQKFKSRVTITADKSTSTAYMELSSLRSEDTAVYYCARGAIYHGYDVIDNWGQGTLVTVSSASTKGPSVFPLAPSSKSTSGGTAALGCLVKDYFPEPVTVSWNSGALTSGVHTFPAVLQSSGLYSLSSVVTVPSSSLGTQTYICNVNHKPSNTKVDKKVEPKSC light: DIQMTQSPSSLSASVGDRVTITCRASQSISSYINWYQQKPGKAPKLLIYATSNIQSGVPSRFSGSGSGTDFTLTISSLQPEDFATYYCQQYRKIPWSFGQGTKLEIKRTVAAPSVFIFPPSDEQLKSGTASVVCLLNNFYPREAKVQWKVDNALQSGNSQESVTEQDSKDSTYSLSSTLTLSKADYEKHKVYACEVTHQGLSSPVTKSFNRGEC | 75.027
AB200-R1H32-R2Vk8 (antibody) heavy: QVQLVQSGAEVKKPGSSVKVSCKASGGTFSNYWMHWVRQAPGQGLEWMGATYRSHSDTYYNQKFKSRVTITADKSTSTAYMELSSLRSEDTAVYYCARGAIYHGYDVIDNWGQGTLVTVSSASTKGPSVFPLAPSSKSTSGGTAALGCLVKDYFPEPVTVSWNSGALTSGVHTFPAVLQSSGLYSLSSVVTVPSSSLGTQTYICNVNHKPSNTKVDKKVEPKSC light: DIQMTQSPSSLSASVGDRVTITCRASQSISSYINWYQQKPGKAPKLLIYATSNLQIGVPSRFSGSGSGTDFTLTISSLQPEDFATYYCQQFRKLPWSFGQGTKLEIKRTVAAPSVFIFPPSDEQLKSGTASVVCLLNNFYPREAKVQWKVDNALQSGNSQESVTEQDSKDSTYSLSSTLTLSKADYEKHKVYACEVTHQGLSSPVTKSFNRGEC | 80.002
AB200-R1H32-R2Vk41 (antibody) heavy: QVQLVQSGAEVKKPGSSVKVSCKASGGTFSNYWMHWVRQAPGQGLEWMGATYRSHSDTYYNQKFKSRVTITADKSTSTAYMELSSLRSEDTAVYYCARGAIYHGYDVIDNWGQGTLVTVSSASTKGPSVFPLAPSSKSTSGGTAALGCLVKDYFPEPVTVSWNSGALTSGVHTFPAVLQSSGLYSLSSVVTVPSSSLGTQTYICNVNHKPSNTKVDKKVEPKSC light: DIQMTQSPSSLSASVGDRVTITCRASQSISSYINWYQQKPGKAPKLLIYATSNIQSGVPSRFSGSGSGTDFTLTISSLQPEDFATYYCQQFRRLPWTFGQGTKLEIKRTVAAPSVFIFPPSDEQLKSGTASVVCLLNNFYPREAKVQWKVDNALQSGNSQESVTEQDSKDSTYSLSSTLTLSKADYEKHKVYACEVTHQGLSSPVTKSFNRGEC | 79.593
AB200-R1H32-R2Vk4 (antibody) heavy: QVQLVQSGAEVKKPGSSVKVSCKASGGTFSNYWMHWVRQAPGQGLEWMGATYRSHSDTYYNQKFKSRVTITADKSTSTAYMELSSLRSEDTAVYYCARGAIYHGYDVIDNWGQGTLVTVSSASTKGPSVFPLAPSSKSTSGGTAALGCLVKDYFPEPVTVSWNSGALTSGVHTFPAVLQSSGLYSLSSVVTVPSSSLGTQTYICNVNHKPSNTKVDKKVEPKSC light: DIQMTQSPSSLSASVGDRVTITCRASQSISSYLNWYQQKPGKAPKLLIYATSNIQSGVPSRFSGSGSGTDFTLTISSLQPEDFATYYCQQFRKLPWSFGQGTKLEIKRTVAAPSVFIFPPSDEQLKSGTASVVCLLNNFYPREAKVQWKVDNALQSGNSQESVTEQDSKDSTYSLSSTLTLSKADYEKHKVYACEVTHQGLSSPVTKSFNRGEC | 79.449
AB200-R1H32-R2Vk6 (antibody) heavy: QVQLVQSGAEVKKPGSSVKVSCKASGGTFSNYWMHWVRQAPGQGLEWMGATYRSHSDTYYNQKFKSRVTITADKSTSTAYMELSSLRSEDTAVYYCARGAIYHGYDVIDNWGQGTLVTVSSASTKGPSVFPLAPSSKSTSGGTAALGCLVKDYFPEPVTVSWNSGALTSGVHTFPAVLQSSGLYSLSSVVTVPSSSLGTQTYICNVNHKPSNTKVDKKVEPKSC light: DIQMTQSPSSLSASVGDRVTITCRASQSISSYINWYQQKPGKAPKLLIYATSNLQSGVPSRFSGSGSGTDFTLTISSLQPEDFATYYCQQFRKLPWSFGQGTKLEIKRTVAAPSVFIFPPSDEQLKSGTASVVCLLNNFYPREAKVQWKVDNALQSGNSQESVTEQDSKDSTYSLSSTLTLSKADYEKHKVYACEVTHQGLSSPVTKSFNRGEC | 79.773
AB200-R1H32-R2Vk2 (antibody) heavy: QVQLVQSGAEVKKPGSSVKVSCKASGGTFSNYWMHWVRQAPGQGLEWMGATYRSHSDTYYNQKFKSRVTITADKSTSTAYMELSSLRSEDTAVYYCARGAIYHGYDVIDNWGQGTLVTVSSASTKGPSVFPLAPSSKSTSGGTAALGCLVKDYFPEPVTVSWNSGALTSGVHTFPAVLQSSGLYSLSSVVTVPSSSLGTQTYICNVNHKPSNTKVDKKVEPKSC light: DIQMTQSPSSLSASVGDRVTITCRASQSISSYINWYQQKPGKAPKLLIYAASSLQSGVPSRFSGSGSGTDFTLTISSLQPEDFATYYCQQFRKLPWSFGQGTKLEIKRTVAAPSVFIFPPSDEQLKSGTASVVCLLNNFYPREAKVQWKVDNALQSGNSQESVTEQDSKDSTYSLSSTLTLSKADYEKHKVYACEVTHQGLSSPVTKSFNRGEC | 79.715
AB200-R1H32-R2Vk43 (antibody) heavy: QVQLVQSGAEVKKPGSSVKVSCKASGGTFSNYWMHWVRQAPGQGLEWMGATYRSHSDTYYNQKFKSRVTITADKSTSTAYMELSSLRSEDTAVYYCARGAIYHGYDVIDNWGQGTLVTVSSASTKGPSVFPLAPSSKSTSGGTAALGCLVKDYFPEPVTVSWNSGALTSGVHTFPAVLQSSGLYSLSSVVTVPSSSLGTQTYICNVNHKPSNTKVDKKVEPKSC light: DIQMTQSPSSLSASVGDRVTITCRASQSISSYINWYQQKPGKAPKLLIYATSNIQSGVPSRFSGSGSGTDFTLTISSLQPEDFATYYCQQFRKIPWTFGQGTKLEIKRTVAAPSVFIFPPSDEQLKSGTASVVCLLNNFYPREAKVQWKVDNALQSGNSQESVTEQDSKDSTYSLSSTLTLSKADYEKHKVYACEVTHQGLSSPVTKSFNRGEC | 78.820
AB200-R1H32-R2Vk47 (antibody) heavy: QVQLVQSGAEVKKPGSSVKVSCKASGGTFSNYWMHWVRQAPGQGLEWMGATYRSHSDTYYNQKFKSRVTITADKSTSTAYMELSSLRSEDTAVYYCARGAIYHGYDVIDNWGQGTLVTVSSASTKGPSVFPLAPSSKSTSGGTAALGCLVKDYFPEPVTVSWNSGALTSGVHTFPAVLQSSGLYSLSSVVTVPSSSLGTQTYICNVNHKPSNTKVDKKVEPKSC light: DIQMTQSPSSLSASVGDRVTITCRASQSISSYINWYQQKPGKAPKLLIYATSNLQIGVPSRFSGSGSGTDFTLTISSLQPEDFATYYCQQYRKIPWSFGQGTKLEIKRTVAAPSVFIFPPSDEQLKSGTASVVCLLNNFYPREAKVQWKVDNALQSGNSQESVTEQDSKDSTYSLSSTLTLSKADYEKHKVYACEVTHQGLSSPVTKSFNRGEC | 75.976
AB200-R1H32-R2Vk7 (antibody) heavy: QVQLVQSGAEVKKPGSSVKVSCKASGGTFSNYWMHWVRQAPGQGLEWMGATYRSHSDTYYNQKFKSRVTITADKSTSTAYMELSSLRSEDTAVYYCARGAIYHGYDVIDNWGQGTLVTVSSASTKGPSVFPLAPSSKSTSGGTAALGCLVKDYFPEPVTVSWNSGALTSGVHTFPAVLQSSGLYSLSSVVTVPSSSLGTQTYICNVNHKPSNTKVDKKVEPKSC light: DIQMTQSPSSLSASVGDRVTITCRASQSISSYINWYQQKPGKAPKLLIYATSNIQSGVPSRFSGSGSGTDFTLTISSLQPEDFATYYCQQFRKLPWSFGQGTKLEIKRTVAAPSVFIFPPSDEQLKSGTASVVCLLNNFYPREAKVQWKVDNALQSGNSQESVTEQDSKDSTYSLSSTLTLSKADYEKHKVYACEVTHQGLSSPVTKSFNRGEC | 79.001
